± gives the uncertainty stated by the source.
Test: self-splicing fitness, log relative to wild type (ln ratio); higher = more splicing; Tetrahymena group I intron in knt gene, E. coli kanamycin selection, DiMSum; sequences stand for … in CUCUCU…GGAGGGAAAAGUUAUCAGGCAUGCACCUGGUAGCUAGUCUUUAAACCAAUAGAUUGCAUCGGUUUAAAAGGCAAGACCGUCAAAUUGCGGGAAAGGGGUCAACAGCCGUUCAGUACCAAGUCUCAGGGGAAACUUUGAGAUGGCCUUGCAAAGGGUAUGGUAAUAAGCUGACGGACAUGGUCCUAACCACGCAGCCAAGUCCUAAGUCAACAGAUCUUCUGUUGAUAUGGAUGCAGUUCACAGACUAAAUGUCGGUCGGGGAAGAUGUAUUCUUCUCAUAAGAUAUAGUCGGACCUCUCCUUAAUGGGAGCUAGCGGAUGAAGUGAUGCAACACUGGAGCCGCUGGGAACUAAUUUGUAUGCGAAAGUAUAUUGAUUAGUUUUGGAGUACUCGUGGUCG
How it was run: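 Library with all eight P1ex-region intron nucleotides randomised, intron inside the knt kanamycin-resistance gene on pET-22b(+), in E. coli BL21(DE3). Cells grew overnight at 37°C or 30°C on LB agar with or without 25 μg/mL kanamycin (plus 100 μg/mL carbenicillin, 50 μM IPTG, 0.2% rhamnose), in six replicate transformations. Pooled colonies were amplicon-sequenced on Illumina HiSeq 2500. DiMSum fitness is the error-weighted combination of wild-type-normalised replicate fold changes, kanamycin versus none.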

| Sequence | self-splicing fitness (ln) (30 °C) | self-splicing fitness (ln) (37 °C) |
| --- | --- | --- |
| GCAUAGCAAUAUUACGUCCA | -1.49 ± 0.21 | -0.447 ± 0.18 |
| GCAUAGCAAUAUUACGUCGC | -1.2 ± 0.28 | -2.32 ± 0.45 |
| GCAUAGCAAUAUUACGUGGA | -3.06 ± 0.25 | -1.75 ± 0.17 |
| GCAUAGCAAUAUUACGUUAC | -2.15 ± 0.41 | -1.85 ± 0.4 |
| GCAUAGCAAUAUUACGUUGA | -2.41 ± 0.12 | -1.76 ± 0.1 |
| GCAUAGCAAUAUUACGUUGU | -3.21 ± 0.17 | -2.74 ± 0.19 |
| GCCAAGCAAUAUUACGAAGA | -2.96 ± 0.21 | -1.39 ± 0.17 |
| GCCAAGCAAUAUUACGAAUG | -3.56 ± 0.2 | -1.84 ± 0.16 |
| GCCAAGCAAUAUUACGAUUG | -4.04 ± 0.4 | -2.12 ± 0.34 |
| GCCAAGCAAUAUUACGCCCA | -1.18 ± 0.1 | -0.6 ± 0.12 |
| GCCAAGCAAUAUUACGCGUA | -0.871 ± 0.089 | -0.13 ± 0.089 |
| GCCAAGCAAUAUUACGCUAC | -4.34 ± 0.42 | -2.22 ± 0.16 |
| GCCAAGCAAUAUUACGCUAU | -1.23 ± 0.064 | -0.923 ± 0.078 |
| GCCAAGCAAUAUUACGCUGA | -1.4 ± 0.1 | -0.943 ± 0.15 |
| GCCAAGCAAUAUUACGGAUA | -0.904 ± 0.069 | -0.65 ± 0.073 |
| GCCAAGCAAUAUUACGGCAG | -3.71 ± 0.19 | -2.54 ± 0.23 |
| GCCAAGCAAUAUUACGGUCC | -2.49 ± 0.11 | -0.771 ± 0.11 |
| GCCAAGCAAUAUUACGUCAC | -3.8 ± 0.19 | -1.8 ± 0.16 |
| GCCAAGCAAUAUUACGUCGC | -2.63 ± 0.14 | -1.23 ± 0.1 |
| GCCAAGCAAUAUUACGUCUA | -1.15 ± 0.11 | -1.08 ± 0.1 |
| GCCAAGCAAUAUUACGUCUC | -0.775 ± 0.067 | -0.174 ± 0.087 |
| GCCAAGCAAUAUUACGUUGU | -1.79 ± 0.064 | -0.73 ± 0.072 |
| GCCCAGCAAUAUUACGAAAG | -2.48 ± 0.12 | -2.07 ± 0.19 |
| GCCCAGCAAUAUUACGAAUU | -2.18 ± 0.077 | -0.934 ± 0.094 |
| GCCCAGCAAUAUUACGAGCA | -1.49 ± 0.11 | -0.143 ± 0.091 |

| Sequence | self-splicing fitness (ln) (30 °C) | self-splicing fitness (ln) (37 °C) |
| --- | --- | --- |
| GCCCAGCAAUAUUACGAGCG | -0.449 ± 0.067 | -1.17 ± 0.1 |
| GCCCAGCAAUAUUACGAGGC | -3.64 ± 0.2 | -2.5 ± 0.22 |
| GCCCAGCAAUAUUACGAUGC | -0.328 ± 0.055 | 0.257 ± 0.076 |
| GCCCAGCAAUAUUACGAUGG | -3.53 ± 0.14 | -2.98 ± 0.18 |
| GCCCAGCAAUAUUACGCAGA | -3.37 ± 0.28 | -3.47 ± 0.42 |
| GCCCAGCAAUAUUACGCCAC | -4.89 ± 0.38 | -2.44 ± 0.18 |
| GCCCAGCAAUAUUACGCGUG | -3.68 ± 0.13 | -2.41 ± 0.12 |
| GCCCAGCAAUAUUACGCUAU | -0.826 ± 0.082 | -0.309 ± 0.086 |
| GCCCAGCAAUAUUACGCUCA | -0.789 ± 0.08 | -0.055 ± 0.1 |
| GCCCAGCAAUAUUACGCUGA | -1.08 ± 0.13 | -0.784 ± 0.18 |
| GCCCAGCAAUAUUACGGAUU | 0.0408 ± 0.057 | -0.0391 ± 0.08 |
| GCCCAGCAAUAUUACGUAAU | -0.747 ± 0.06 | -0.32 ± 0.067 |
| GCCCAGCAAUAUUACGUCAC | -2.87 ± 0.13 | -2.64 ± 0.22 |
| GCCCAGCAAUAUUACGUGCC | -3.75 ± 0.32 | -3.18 ± 0.2 |
| GCCCAGCAAUAUUACGUGGG | -3.2 ± 0.12 | -3.07 ± 0.2 |
| GCCCAGCAAUAUUACGUUAU | -1.17 ± 0.079 | -1.29 ± 0.1 |
| GCCCAGCAAUAUUACGUUCA | -2.45 ± 0.16 | -0.504 ± 0.11 |
| GCCCAGCAAUAUUACGUUUC | -1.36 ± 0.078 | -1.37 ± 0.1 |
| GCCGAGCAAUAUUACGAAGC | -2.8 ± 0.33 | -1.8 ± 0.46 |
| GCCGAGCAAUAUUACGAUAC | – | -1.59 ± 0.35 |
| GCCGAGCAAUAUUACGAUCG | -2.36 ± 0.26 | – |
| GCCGAGCAAUAUUACGCAAU | -2.79 ± 0.2 | -1.35 ± 0.15 |
| GCCGAGCAAUAUUACGCACU | -1.64 ± 0.11 | -0.365 ± 0.13 |
| GCCGAGCAAUAUUACGCAUC | -2.54 ± 0.24 | -1.48 ± 0.28 |
| GCCGAGCAAUAUUACGCCGU | -3.28 ± 0.29 | -1.75 ± 0.19 |

| Sequence | self-splicing fitness (ln) (30 °C) | self-splicing fitness (ln) (37 °C) |
| --- | --- | --- |
| GCCGAGCAAUAUUACGCUAA | -1.86 ± 0.2 | -2.62 ± 0.23 |
| GCCGAGCAAUAUUACGCUCU | -0.992 ± 0.2 | -0.494 ± 0.21 |
| GCCGAGCAAUAUUACGCUUU | -1.61 ± 0.082 | -0.235 ± 0.093 |
| GCCGAGCAAUAUUACGUACC | -2.15 ± 0.13 | -0.678 ± 0.16 |
| GCCGAGCAAUAUUACGUAGA | -2.74 ± 0.13 | -2.07 ± 0.14 |
| GCCGAGCAAUAUUACGUAGG | -3.39 ± 0.21 | -0.729 ± 0.25 |
| GCCGAGCAAUAUUACGUGCG | -2.17 ± 0.11 | -1.28 ± 0.098 |
| GCCGAGCAAUAUUACGUUAU | -2.06 ± 0.098 | -2.43 ± 0.18 |
| GCCGAGCAAUAUUACGUUGU | -2.48 ± 0.12 | -1.54 ± 0.12 |
| GCCUAGCAAUAUUACGAAAU | -2.34 ± 0.12 | -0.297 ± 0.13 |
| GCCUAGCAAUAUUACGACCU | -1.35 ± 0.23 | -1.02 ± 0.27 |
| GCCUAGCAAUAUUACGACGA | -1.46 ± 0.14 | -0.629 ± 0.13 |
| GCCUAGCAAUAUUACGAUAU | -2.23 ± 0.11 | -0.907 ± 0.097 |
| GCCUAGCAAUAUUACGAUCU | -2.18 ± 0.079 | -0.334 ± 0.071 |
| GCCUAGCAAUAUUACGCAAC | -1.78 ± 0.14 | -1.21 ± 0.13 |
| GCCUAGCAAUAUUACGCCAA | -2.38 ± 0.32 | -3.18 ± 0.29 |
| GCCUAGCAAUAUUACGCGAU | -3.87 ± 0.24 | -1.68 ± 0.16 |
| GCCUAGCAAUAUUACGCGCA | -1.21 ± 0.12 | -0.303 ± 0.11 |
| GCCUAGCAAUAUUACGCGCU | -2.19 ± 0.13 | -0.269 ± 0.11 |
| GCCUAGCAAUAUUACGCGGC | -3.58 ± 0.35 | -2 ± 0.28 |
| GCCUAGCAAUAUUACGCGGG | -1.74 ± 0.17 | -3.1 ± 0.43 |
| GCCUAGCAAUAUUACGGAAA | -0.507 ± 0.27 | -0.985 ± 0.26 |
| GCCUAGCAAUAUUACGGAGA | -1.16 ± 0.11 | -1.06 ± 0.11 |
| GCCUAGCAAUAUUACGGCCC | -3.4 ± 0.48 | -0.535 ± 0.27 |
| GCCUAGCAAUAUUACGGGCG | -2.03 ± 0.1 | -1.02 ± 0.097 |

| Sequence | self-splicing fitness (ln) (30 °C) | self-splicing fitness (ln) (37 °C) |
| --- | --- | --- |
| GCCUAGCAAUAUUACGGGCU | -3.65 ± 0.23 | -2.07 ± 0.24 |
| GCCUAGCAAUAUUACGGGGC | – | -2.81 ± 0.47 |
| GCCUAGCAAUAUUACGGUCA | -0.989 ± 0.13 | -0.494 ± 0.12 |
| GCCUAGCAAUAUUACGUAAU | -0.648 ± 0.071 | 0.224 ± 0.087 |
| GCCUAGCAAUAUUACGUAUA | -3.04 ± 0.25 | -1.63 ± 0.15 |
| GCCUAGCAAUAUUACGUCAG | -2.36 ± 0.26 | -0.81 ± 0.34 |
| GCCUAGCAAUAUUACGUGAU | -0.0579 ± 0.072 | 0.159 ± 0.079 |
| GCCUAGCAAUAUUACGUGCA | -2.35 ± 0.12 | -0.937 ± 0.1 |
| GCCUAGCAAUAUUACGUGGA | -0.477 ± 0.068 | 0.358 ± 0.076 |
| GCCUAGCAAUAUUACGUUAG | -4.33 ± 0.18 | -2.4 ± 0.16 |
| GCCUAGCAAUAUUACGUUUG | -2.89 ± 0.21 | -0.761 ± 0.13 |
| GCCUAGCAAUAUUACGUUUU | -1.7 ± 0.097 | -0.614 ± 0.12 |
| GCGAAGCAAUAUUACGAAGC | -2.71 ± 0.39 | -2.49 ± 0.36 |
| GCGAAGCAAUAUUACGAAUC | -2.47 ± 0.11 | -1.11 ± 0.12 |
| GCGAAGCAAUAUUACGAGGC | – | -1.65 ± 0.45 |
| GCGAAGCAAUAUUACGAUGA | -1.1 ± 0.11 | 0.105 ± 0.098 |
| GCGAAGCAAUAUUACGCAGC | -3.31 ± 0.25 | -2.06 ± 0.34 |
| GCGAAGCAAUAUUACGCAUA | -1.92 ± 0.2 | -1.76 ± 0.16 |
| GCGAAGCAAUAUUACGCGGA | – | -1.26 ± 0.36 |
| GCGAAGCAAUAUUACGCUCU | -1.7 ± 0.24 | -1.49 ± 0.38 |
| GCGAAGCAAUAUUACGCUGU | -1.5 ± 0.39 | – |
| GCGAAGCAAUAUUACGGCGA | -0.0437 ± 0.14 | 0.0298 ± 0.15 |

From the supplement of paper PMC7877785
